# Test results: PMC10250220
# Assays:
# [1] = target: Flag-tagged CTC1 ΔB (human) (UniProt Q2NKJ3); experiment: co-IP
# CTC1 V259M;STN1;TEN1 = CTC1 V259M;STN1;TEN1 (human?;human?;human?, UniProt Q2NKJ3;Q9H668;Q86WV5 1-1217;1-368;1-123, V259M||); experiment: EMSA
# CTC1 A227V;STN1;TEN1 = CTC1 A227V;STN1;TEN1 (human?;human?;human?, UniProt Q2NKJ3;Q9H668;Q86WV5 1-1217;1-368;1-123, A227V||); experiment: EMSA
# Chain of CTC1 A227V;STN1;TEN1 (Q2NKJ3 whole entry A227V, chain 1 of 3): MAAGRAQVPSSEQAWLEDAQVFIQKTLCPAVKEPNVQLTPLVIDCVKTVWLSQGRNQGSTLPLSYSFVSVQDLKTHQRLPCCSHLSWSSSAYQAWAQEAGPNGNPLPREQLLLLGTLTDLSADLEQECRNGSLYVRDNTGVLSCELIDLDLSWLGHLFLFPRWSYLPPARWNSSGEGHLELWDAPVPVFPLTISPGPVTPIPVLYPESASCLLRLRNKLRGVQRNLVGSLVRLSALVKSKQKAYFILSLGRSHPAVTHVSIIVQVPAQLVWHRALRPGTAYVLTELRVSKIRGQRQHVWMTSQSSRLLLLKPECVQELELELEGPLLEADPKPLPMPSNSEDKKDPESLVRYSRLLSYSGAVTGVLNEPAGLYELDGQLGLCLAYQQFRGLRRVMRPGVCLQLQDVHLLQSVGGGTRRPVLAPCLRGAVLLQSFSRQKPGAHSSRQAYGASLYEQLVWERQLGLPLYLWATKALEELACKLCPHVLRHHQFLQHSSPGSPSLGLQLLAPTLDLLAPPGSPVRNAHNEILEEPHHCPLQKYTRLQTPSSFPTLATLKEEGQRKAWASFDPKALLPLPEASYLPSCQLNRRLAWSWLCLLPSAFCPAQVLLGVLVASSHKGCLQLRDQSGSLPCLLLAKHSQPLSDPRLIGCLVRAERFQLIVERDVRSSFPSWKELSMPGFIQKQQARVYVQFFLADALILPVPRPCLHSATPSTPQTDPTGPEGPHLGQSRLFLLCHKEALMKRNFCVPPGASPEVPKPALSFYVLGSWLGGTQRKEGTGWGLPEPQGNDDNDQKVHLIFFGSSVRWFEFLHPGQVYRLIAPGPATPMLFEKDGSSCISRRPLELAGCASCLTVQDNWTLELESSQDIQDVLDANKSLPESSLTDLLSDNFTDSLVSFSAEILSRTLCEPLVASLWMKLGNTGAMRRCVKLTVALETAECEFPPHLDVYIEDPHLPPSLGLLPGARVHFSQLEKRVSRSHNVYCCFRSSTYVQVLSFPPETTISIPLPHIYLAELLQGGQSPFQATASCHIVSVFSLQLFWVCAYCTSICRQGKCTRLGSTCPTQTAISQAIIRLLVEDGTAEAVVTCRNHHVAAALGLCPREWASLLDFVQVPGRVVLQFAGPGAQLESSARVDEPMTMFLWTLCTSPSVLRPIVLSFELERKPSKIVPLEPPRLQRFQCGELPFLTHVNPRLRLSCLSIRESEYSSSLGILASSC
# Chain of CTC1 A227V;STN1;TEN1 (Q9H668 whole entry, chain 2 of 3): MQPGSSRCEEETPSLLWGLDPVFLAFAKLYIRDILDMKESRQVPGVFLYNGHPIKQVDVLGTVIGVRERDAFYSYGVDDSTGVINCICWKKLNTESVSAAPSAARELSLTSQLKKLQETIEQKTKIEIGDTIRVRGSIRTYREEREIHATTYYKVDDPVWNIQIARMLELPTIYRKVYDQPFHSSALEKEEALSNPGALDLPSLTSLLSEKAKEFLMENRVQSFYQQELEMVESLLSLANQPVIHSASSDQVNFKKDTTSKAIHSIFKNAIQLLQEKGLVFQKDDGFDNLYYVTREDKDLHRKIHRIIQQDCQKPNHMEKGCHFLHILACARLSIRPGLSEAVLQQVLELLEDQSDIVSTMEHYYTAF
# Chain of CTC1 A227V;STN1;TEN1 (Q86WV5 whole entry, chain 3 of 3): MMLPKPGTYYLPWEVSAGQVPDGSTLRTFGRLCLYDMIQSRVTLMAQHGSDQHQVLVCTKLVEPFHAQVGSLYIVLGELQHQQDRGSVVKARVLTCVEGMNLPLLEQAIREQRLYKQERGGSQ
# Chain of CTC1 V259M;STN1;TEN1 (Q2NKJ3 whole entry V259M, chain 1 of 3): as the sequence (Q2NKJ3 whole entry A227V, chain 1 of 3) above, with V227A, V259M counted along it
# Chain of CTC1 V259M;STN1;TEN1 (Q9H668 whole entry, chain 2 of 3): as the sequence (Q9H668 whole entry, chain 2 of 3) above
# Chain of CTC1 V259M;STN1;TEN1 (Q86WV5 whole entry, chain 3 of 3): as the sequence (Q86WV5 whole entry, chain 3 of 3) above
# Chain of Myc-tagged TPP1 (Q96AP0 whole entry): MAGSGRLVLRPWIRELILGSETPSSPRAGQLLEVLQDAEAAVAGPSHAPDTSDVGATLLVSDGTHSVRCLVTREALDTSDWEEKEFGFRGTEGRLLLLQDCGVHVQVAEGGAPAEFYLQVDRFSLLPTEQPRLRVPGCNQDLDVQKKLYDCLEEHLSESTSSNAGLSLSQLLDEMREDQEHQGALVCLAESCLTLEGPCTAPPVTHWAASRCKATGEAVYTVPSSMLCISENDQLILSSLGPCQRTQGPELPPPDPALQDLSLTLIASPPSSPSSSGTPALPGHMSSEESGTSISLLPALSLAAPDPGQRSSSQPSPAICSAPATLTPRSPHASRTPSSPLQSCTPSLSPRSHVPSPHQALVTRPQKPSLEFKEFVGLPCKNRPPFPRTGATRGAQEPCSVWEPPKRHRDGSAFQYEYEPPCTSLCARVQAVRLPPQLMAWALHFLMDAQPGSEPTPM
# Chain of Flag-tagged CTC1 ΔB (human) (Q2NKJ3 whole entry, stated change not applied): as the sequence (Q2NKJ3 whole entry A227V, chain 1 of 3) above, with V227A counted along it
Molecule,"percent decrease of TPP1 co-immunoprecipitated, against WT CTC1 [1]",binding result (CTC1 V259M;STN1;TEN1),binding result (CTC1 A227V;STN1;TEN1)
Myc-tagged TPP1 (from UniProt Q96AP0 1-458) (natural protein),44%,,
GGTTAGGGTTAGGGTTAG (ssDNA) [Tel-18 CY7],,binds,binds
